Reference: patent publication US20240417469A1 (CONCEPT TO MEDICINE BIOTECH, published 2024)
Where “and” joins values, the source holds several entries; their conditions need not be identical. Equal values may be shown once. Read-outs that look alike come from different tables or passages of the source.

Experiments:
[1] = molecular target: T1, human CD3 on cells (human PBMC; Jurkat TCR/CD3 NFAT reporter cells) (human, UniProt P07766 23-207; P04234 22-171; P09693 23-182); assay: cell-based or functional assay
[2] = molecular target: T1, human CD3 on cells (human PBMC; Jurkat …); assay: cell-based or functional assay; remark: listed apart in the source
[3] = molecular target: T2, human CD3 protein (human, UniProt P07766 23-126; P04234 22-105); assay: ELISA, plate-coated CD3
T2 construct: ELISA coating protein; also called Human CD3D & CD3E Heterodimer Protein

[4] = molecular target: T3, recombinant CD3D&E protein (human CD3-his tag) (human, UniProt P04234 22-105; P07766 23-126, limits assumed); assay: SPR Biacore, Ab captured on Protein A
T3 construct: Analyte in Biacore; also called CD3D&E-His; CD3d&ε-His

[5] = molecular target: T2, human CD3 protein; assay: ELISA, plate-coated CD3; remark: listed apart in the source
[6] = molecular target: T4, cynomolgus CD3 protein (cynomolgus); assay: ELISA, plate-coated CD3
T4 construct: ELISA coating protein

[7] = molecular target: T3, recombinant CD3D&E protein (human …); assay: SPR Biacore, Ab captured on Protein A; remark: listed apart in the source
[8] = molecular target: T1, human CD3 on cells (human PBMC; Jurkat …); assay: FACS on human PBMC, PE anti-human IgG Fc secondary, geometric mean fluorescence
[9] = molecular target: T5, cynomolgus CD3 on cynomolgus PBMC (cynomolgus, UniProt Q95LI5 22-198; Q95LI8 22-171; Q95LI7 23-181); assay: FACS on cynomolgus PBMC, PE anti-human IgG Fc secondary, geometric mean fluorescence
T5 construct: whole, on cells; Native CD3 complex on cynomolgus T cells; also called cyno PBMC; cynoPBMCs
Wherever Emax is given: unit not given here.

T5 sequence (Q95LI5 22-198, chain 1 of 3): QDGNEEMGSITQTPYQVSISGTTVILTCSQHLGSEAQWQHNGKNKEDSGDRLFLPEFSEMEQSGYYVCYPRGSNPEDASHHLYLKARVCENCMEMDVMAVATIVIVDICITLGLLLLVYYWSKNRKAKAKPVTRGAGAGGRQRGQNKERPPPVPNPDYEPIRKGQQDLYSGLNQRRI
T5 sequence (Q95LI8 22-171, chain 2 of 3): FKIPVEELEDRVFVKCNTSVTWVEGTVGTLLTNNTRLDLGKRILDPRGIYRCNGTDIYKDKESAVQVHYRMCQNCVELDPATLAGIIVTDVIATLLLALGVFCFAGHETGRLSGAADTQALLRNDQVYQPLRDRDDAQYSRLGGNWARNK
T5 sequence (Q95LI7 23-181, chain 3 of 3): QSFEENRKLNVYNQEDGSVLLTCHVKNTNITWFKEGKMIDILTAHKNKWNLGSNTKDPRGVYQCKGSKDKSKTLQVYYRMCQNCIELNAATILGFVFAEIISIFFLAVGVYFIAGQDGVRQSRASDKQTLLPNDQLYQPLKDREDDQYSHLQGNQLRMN
T1 sequence (P07766 23-207, chain 1 of 3): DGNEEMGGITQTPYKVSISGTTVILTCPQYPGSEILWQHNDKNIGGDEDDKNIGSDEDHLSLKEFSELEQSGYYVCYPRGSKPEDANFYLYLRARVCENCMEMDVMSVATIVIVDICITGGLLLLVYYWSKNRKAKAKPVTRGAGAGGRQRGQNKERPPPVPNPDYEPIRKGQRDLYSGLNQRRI
T1 sequence (P04234 22-171, chain 2 of 3): as the sequence (Q95LI8 22-171, chain 2 of 3) above, with V5I, K15N, V20I, T32S, N33D, N34I, A64T, N74S, L83V, R141H counted along it
T1 sequence (P09693 23-182, chain 3 of 3): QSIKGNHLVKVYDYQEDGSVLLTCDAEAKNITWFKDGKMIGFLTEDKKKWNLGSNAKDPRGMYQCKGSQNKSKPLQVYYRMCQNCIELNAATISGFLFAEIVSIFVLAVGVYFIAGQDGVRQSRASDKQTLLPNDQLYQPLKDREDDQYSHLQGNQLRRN
T4 sequence (Q95LI5 22-117, chain 1 of 2): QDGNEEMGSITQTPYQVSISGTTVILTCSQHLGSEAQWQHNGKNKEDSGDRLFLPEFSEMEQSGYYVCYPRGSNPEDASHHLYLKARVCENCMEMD
T4 sequence (Q95LI8 22-105, chain 2 of 2, further chain): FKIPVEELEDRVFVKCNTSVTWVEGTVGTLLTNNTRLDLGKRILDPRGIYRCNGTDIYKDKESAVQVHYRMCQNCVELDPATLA
T2 sequence (P07766 23-126 limits assumed, chain 1 of 2): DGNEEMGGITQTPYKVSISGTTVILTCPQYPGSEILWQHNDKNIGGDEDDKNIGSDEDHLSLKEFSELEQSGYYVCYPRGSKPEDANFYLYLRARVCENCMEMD
T2 sequence (P04234 22-105 limits assumed, chain 2 of 2): as the sequence (Q95LI8 22-105, chain 2 of 2, further chain) above, with V5I, K15N, V20I, T32S, N33D, N34I, A64T, N74S, L83V counted along it
T3 sequence (P04234 22-105 limits assumed, chain 1 of 2): as the sequence (Q95LI8 22-105, chain 2 of 2, further chain) above, with V5I, K15N, V20I, T32S, N33D, N34I, A64T, N74S, L83V counted along it
T3 sequence (P07766 23-126 limits assumed, chain 2 of 2): as the sequence (P07766 23-126 limits assumed, chain 1 of 2) above

Row | Binder | % of SP34 [1] | Emax [1] | CD3-NFAT Activity by CD3 mAb [2] | EC50 [3] | Kd [4] | koff [4] | kon [4] | EC50 [5] | EC50 [6] | Kd [7] | koff [7] | kon [7] | EC50 (read off the curve) [8] | binding result [9]
1 | Hu155A9B1-3 (antibody, V domains shown, humanized mAb) VH: EVQLQESGPGLVKPSETLSLTCTVSGGSISSYNVHWVRQPPGKGLEWMGRVRYNGDTSYNSALKSRLTISRDTSKNQFSLKLSSVTAADTAVYYCARGPYGGSSEPLFDYWGQGTMVTVSS VL: DIQMTQSPSSLSASVGDRVTITCKASQNINKYLNWYQQKPGKAPRLLIYTTNNLQTGVPSRFSGSGSGTDFTLTISSLQPEDFATYYCLQHNSGYTFGQGTKLEIK | 12.8% | 648 | ≤ 50 % SP34 | 32.2 ng/mL | 18 nM | 0.00667 s⁻¹ | 370000 M⁻¹ s⁻¹ | – | – | – | – | – | – | –
2 | Hu155A9B1-6 (antibody, V domains shown, humanized mAb) VH: EVQLQESGPGLVKPSETLSLTCTVSGFSLTSYNVHWVRQPPGKGLEWMGRVRYNGDTSYNSALKSRLTISRDTSKNQASLKLSSVTAADTAVYYCTRGPYGGSSEPLFDYWGQGTMVTVSS VL: DIQMTQSPSSLSASVGDRVTITCKASQNINKYLNWYQQKPGKAPRLLIYTTNNLQTGVPSRFSGSGSGTDFTLTISSLQPEDFATYYCLQHNSGYTFGQGTKLEIK | 84.8% | 4300 | > 50 % SP34 | 4.16 ng/mL | 62.1 nM | 0.00593 s⁻¹ | 95400 M⁻¹ s⁻¹ | – | – | – | – | – | – | –
3 | SP34 monoclonal antibody (antibody, human IgG1, lambda, N297A, V domains shown, also called SP34 (Biointron, B6762)) VH: EVQLVESGGGLVQPKGSLKLSCAASGFTFNTYAMNWVRQAPGKGLEWVARIRSKYNNYATYYADSVKDRFTISRDDSQSILYLQMNNLKTEDTAMYYCVRHGNFGNSYVSWFAYWGQGTLVTVSA VL: QAVVTQESALTTSPGETVTLTCRSSTGAVTTSNYANWVQEKPDHLFTGLIGGTNKRAPGVPARFSGSLIGDKAALTITGAQTEDEAIYFCALWYSNLWVFGGGTKLTVLG | 100% | – | – | – | – | – | – | 6.48 ng/mL | 6.18 ng/mL | 6.89 nM | 0.00292 s⁻¹ | 424000 M⁻¹ s⁻¹ | ~1 nM | binds
4 | 192A7B9 chimeric mAb (antibody, V domains shown, Chimeric mAb) VH: QVQLKESGPGLVQPSQTLSLNCTVSGFSLTSYNVHWVRQPPGKGLEWMGRMRYNGDTSYNSALKSRLSISRDTSKNQVFLKMNSLQTDDTGTYYCTRGPRGGYYSALFDYWGQGVMVTVSS VL: DIQMTQSPSFLSASVGDRVTINCKASQNINRYLNWYQQKLGDAPKVLISIANSLQTGIPSRFSGSGSGTDFTLTISSLQPEDVATYFCLQHNSWYTFGAGTKLELK | – | – | – | 2.53 ng/mL and 2.85 ng/mL and 2.16 ng/mL and 2.3 ng/mL | 6.34 nM | 0.000442 s⁻¹ | 69700 M⁻¹ s⁻¹ | 1.91 ng/mL | 2.16 ng/mL | 6.34 nM | 0.000442 s⁻¹ | 69700 M⁻¹ s⁻¹ | – | binds
5 | 155A9B1 chimeric mAb (antibody, V domains shown, Chimeric mAb) VH: QVQLKESGPGLVQPSQTLSLTCTVSGFSLTSYNVHWVRQPPGKGLEWMGRVRYNGDTSYNSALKSRLSISRDTSKNQAFLKMNSLQIDDTGTYYCTRGPYGGSSEPLFDYWGQGVMVTVSS VL: DIKMTQSPSFLSASVGDRVTINCKASQNINKYLNWFQQKLGEAPRLLIYTTNNLQTGIPSRFSGSGSGTDFTLTISSLQPEDVATYFCLQHNSGYTFGAGTKLELK | – | – | – | 2.7 ng/mL and 2.54 ng/mL and 2.34 ng/mL | 36.1 nM | 0.00207 s⁻¹ | 57200 M⁻¹ s⁻¹ | 2.15 ng/mL | 2.33 ng/mL | 36.1 nM | 0.00207 s⁻¹ | 57200 M⁻¹ s⁻¹ | – | binds
6 | 153A6B1 chimeric mAb (antibody, V domains shown, Chimeric mAb of the hybridoma clone; also called 153A6B1C8) VH: QVQLKESGPGLVQPSQTLSLTCTVSGFSLTSYNIHWVRQPPGKGLEWMGRIRYNGDTSYNSALKSRLSISRDTSKNQVFLKMSSLQTDDTGTYYCTRGPYGGSREPLFDYWGQGVMVTVSS VL: DIKMTQSPSFLSAAVGDRVTINCKTSQNINKYLNWFQQKLGAAPKLLIYTTNNLQTGIPSRFSGSGSGTDFTLTISSLQPEDVATYFCLQHGSGYTFGAGTKLELK | – | – | – | 3.42 ng/mL and 2.91 ng/mL and 2.74 ng/mL | 8.69 nM | 0.000694 s⁻¹ | 79900 M⁻¹ s⁻¹ | 2.79 ng/mL | 2.88 ng/mL | 8.69 nM | 0.000694 s⁻¹ | 79900 M⁻¹ s⁻¹ | – | binds
